Reference: patent US6858707B1, “Hypersensitive response elicitor fragments which are active but do not elicit a hypersensitive response” (EDEN Bioscience Corporation, priority 1998, dated 2005)
Several values for one entry are separate records, joined by “and”; a condition that tells them apart may be missing. Identical values can stand only once.

B1: Fragment 6: amino acids 267-403 of SEQ ID NO: 23, C-terminal fragment (protein, listed as Erwinia amylovora)
chain: MKAGIQALNDIGTHRHSSTRSFVNKGDRAMAKEIGQFMDQYPEVFGKPQYQKGPGQEVKTDDKSWAKALSKPDDDGMTPASMEQFNKAKGMIKRPMAGDTGNGNLQARGAGGSSLGIDAMMAGDAINNMALGKLGAA
B2: Fragment 14: amino acids 76-168 of SEQ ID NO: 23, internal fragment (protein, listed as Erwinia amylovora)
chain: MGGGLGGGLGNGLGGSGGLGEGLSNALNDMLGGSLNTLGSKGGNNTTSTTNSPLDQALGINSTSQNDDSTSGTDSTSDSSDPMQQLLKMFSEI
B3: Fragment 5: amino acids 210-403 of SEQ ID NO: 23, C-terminal fragment (protein, listed as Erwinia amylovora)
chain: MGNGLSQLLGNGGLGGGQGGNAGTGLDGSSLGGKGLQNLSGPVDYQQLGNAVGTGIGMKAGIQALNDIGTHRHSSTRSFVNKGDRAMAKEIGQFMDQYPEVFGKPQYQKGPGQEVKTDDKSWAKALSKPDDDGMTPASMEQFNKAKGMIKRPMAGDTGNGNLQARGAGGSSLGIDAMMAGDAINNMALGKLGAA
B4: Fragment 7: amino acids 343-403 of SEQ ID NO: 23, smallest C-terminal protein (protein, listed as Erwinia amylovora)
chain: MTPASMEQFNKAKGMIKRPMAGDTGNGNLQARGAGGSSLGIDAMMAGDAINNMALGKLGAA
B5: Fragment 15: amino acids 105-209 of SEQ ID NO: 23, internal fragment (protein, listed as Erwinia amylovora)
chain: MLGGSLNTLGSKGGNNTTSTTNSPLDQALGINSTSQNDDSTSGTDSTSDSSDPMQQLLKMFSEIMQSLFGDGQDGTQGSSSGGKQPTEGEQNAYKKGVTDALSGL
B6: Fragment 19: amino acids 137-204 of SEQ ID NO: 23, internal fragment (protein, listed as Erwinia amylovora)
chain: STSQNDDSTSGTDSTSDSSDPMQQLLKMFSEIMQSLFGDGQDGTQGSSSGGKQPTEGEQNAYKKGVTD
B7: Fragment 1: full length Erwinia amylovora hypersensitive response elicitor, amino acids 1-403 of SEQ ID NO: 23, pET28(b) clone, positive control (protein, listed as Erwinia amylovora)
chain: MSLNTSGLGASTMQISIGGAGGNNGLLGTSRQNAGLGGNSALGLGGGNQNDTVNQLAGLLTGMMMMMSMMGGGGLMGGGLGGGLGNGLGGSGGLGEGLSNALNDMLGGSLNTLGSKGGNNTTSTTNSPLDQALGINSTSQNDDSTSGTDSTSDSSDPMQQLLKMFSEIMQSLFGDGQDGTQGSSSGGKQPTEGEQNAYKKGVTDALSGLMGNGLSQLLGNGGLGGGQGGNAGTGLDGSSLGGKGLQNLSGPVDYQQLGNAVGTGIGMKAGIQALNDIGTHRHSSTRSFVNKGDRAMAKEIGQFMDQYPEVFGKPQYQKGPGQEVKTDDKSWAKALSKPDDDGMTPASMEQFNKAKGMIKRPMAGDTGNGNLQARGAGGSSLGIDAMMAGDAINNMALGKLGAA
B8: Fragment 17: amino acids 105-168 of SEQ ID NO: 23, internal fragment (protein, listed as Erwinia amylovora)
chain: MLGGSLNTLGSKGGNNTTSTTNSPLDQALGINSTSQNDDSTSGTDSTSDSSDPMQQLLKMFSEI
B9: Fragment 9: amino acids 1-104 of SEQ ID NO: 23, N-terminal fragment (protein, listed as Erwinia amylovora)
chain: MSLNTSGLGASTMQISIGGAGGNNGLLGTSRQNAGLGGNSALGLGGGNQNDTVNQLAGLLTGMMMMMSMMGGGGLMGGGLGGGLGNGLGGSGGLGEGLSNALND
B10: Fragment 13: amino acids 76-209 of SEQ ID NO: 23, internal fragment (protein, listed as Erwinia amylovora)
chain: MGGGLGGGLGNGLGGSGGLGEGLSNALNDMLGGSLNTLGSKGGNNTTSTTNSPLDQALGINSTSQNDDSTSGTDSTSDSSDPMQQLLKMFSEIMQSLFGDGQDGTQGSSSGGKQPTEGEQNAYKKGVTDALSGL
B11: Fragment 10: amino acids 1-168 of SEQ ID NO: 23, N-terminal fragment (protein, listed as Erwinia amylovora)
chain: MSLNTSGLGASTMQISIGGAGGNNGLLGTSRQNAGLGGNSALGLGGGNQNDTVNQLAGLLTGMMMMMSMMGGGGLMGGGLGGGLGNGLGGSGGLGEGLSNALNDMLGGSLNTLGSKGGNNTTSTTNSPLDQALGINSTSQNDDSTSGTDSTSDSSDPMQQLLKMFSEI
B12: Fragment 4: amino acids 169-403 of SEQ ID NO: 23, C-terminal fragment (protein, listed as Erwinia amylovora)
chain: MQSLFGDGQDGTQGSSSGGKQPTEGEQNAYKKGVTDALSGLMGNGLSQLLGNGGLGGGQGGNAGTGLDGSSLGGKGLQNLSGPVDYQQLGNAVGTGIGMKAGIQALNDIGTHRHSSTRSFVNKGDRAMAKEIGQFMDQYPEVFGKPQYQKGPGQEVKTDDKSWAKALSKPDDDGMTPASMEQFNKAKGMIKRPMAGDTGNGNLQARGAGGSSLGIDAMMAGDAINNMALGKLGAA

Tests used:
[1] = system: tobacco (Nicotiana tabacum v. Xanthi) leaves; assay: Induction of HR in tobacco by hrpN truncated proteins; type: in vivo; details: for HR titer: large scale purified protein, concentration down to which HR is elicited in tobacco, — = no HR; for HR elicitation in tobacco (in words): Example 12
Description: A 1.5 ml aliquot from the 50 ml cultures grown for small scale purification of the truncated proteins was centrifuged at 14,000 rpm for four minutes and re-suspended in an equal volume of 5 mM potassium phosphate buffer, pH 6.8. The cell suspension was sonicated for ca. 30 seconds then diluted 1:2 and 1:10 with phosphate buffer. Both dilutions plus the neat cell lysate were infiltrated into the fourth to ninth leaves of 10-15 leaf tobacco plants by making a hole in single leaf panes and infiltrating the bacterial lysate into the intercellular leaf space using a syringe without a needle. The HR response was recorded 24-48 hr post infiltration. Tobacco (Nicotiana tabacum v. Xanthi) seedlings were grown in an environmental chamber at 20-25° C. with a photoperiod of 12-h light/12-h dark and ca. 40% RH. Cell lysate was used for the initial HR assays (in order to screen the truncated proteins for HR activity) as the small scale urea purification yielded very little protein which was denatured due to the purification process.
The full length positive control protein elicited HR down to only 5-7 μg/ml. […] This false HR was likely due to an affinity of the imidazole used in the purification process to bind to one or several of the background proteins, thereby not completely dialyzing out.

[2] = system: tomato (Lycopersicon spp. cv. Marglobe); assay: Induction of growth enhancement (GE/PGE), tomato seed soak; type: in vivo; details: for PGE ht>buffer @20 μg/ml: tomato seeds soaked overnight at 20 μg/ml; for PGE ht>buffer @20 μg/ml / PGE ht>buffer @ 40 μg/ml / PGE ht>buffer @10 μg/ml: height vs buffer control; for PGE ht>buffer @20 μg/ml / PGE ht>buffer @10 μg/ml: >10% needed to pass; for PGE ht>buffer @10 μg/ml: tomato seeds soaked overnight at 10 μg/ml
Description: Sixty tomato (Lycopersicon spp. cv. […] The next morning, the sixty seeds were sewn in three pots and 12-15 days later and again 18-20 days later the heights of the 10 tallest tomato plants per pot were measured and compared with the heights of the control plants treated only with phosphate buffer. Analyses were done on the heights to determine if there was a significant difference in the height of the plants treated with the truncated proteins compared with the buffer control, and thereby determine whether the proteins induced growth enhancement.

TMV = assay: Induction of systemic acquired resistance (SAR), TMV lesions on tobacco; type: in vivo, Nicotiana tabacum; details: tobacco sprayed with 20 μg/ml, reduction in TMV lesions vs buffer control
Description: Three tobacco (Nicotiana tabacum cv. Xanthi) plants with 8-12 leaves (ca. 75 day old plants) were used in the assay. One leaf of the tobacco plants was covered up and the rest of the leaves were sprayed with ca. 50 ml of a 20 μg/ml solution of the truncated proteins diluted with 5 mM potassium phosphate buffer. Five to seven days later two leaves (the unsprayed leaf and the sprayed leaf opposite and just above the unsprayed leaf) were inoculated with 20 μl of a 1.8 μg/ml solution of TMV along with a pinch of diatomaceous earth by rubbing the mixture along the top surface of the leaves. The TMV entered the plants through tiny lesions made by the diatomaceous earth. Ca. 3-4 days post TMV inolucation, the number of TMV lesions was counted on both leaves compared with the number of lesions on the negative control buffer treated leaves. Analyses were done to determine the efficacy of reducing the number of TWV lesions by the protein fragents compared to the buffer control. Percentage of efficacy was calculated as: Reduction in TMV lesions (% efficacy)=100×(1−mean # of lesions on treated leaves/mean # of lesions on buffer control leaves).

| Molecule | PGE ht>buffer @20 μg/ml [2] [%] | HR titer [1] [µg/mL] | PGE ht>buffer @10 μg/ml [2] [%] | other results |
| --- | --- | --- | --- | --- |
| c1c[nH]cn1 [Imidazole] | – | – | – | false HR response ([1]; imidazole at ca. 60 mM): did elicit a false HR response |
| Fragment 20: amino acids 137-180 of SEQ ID NO: 23, smallest HR domain (STSQNDDSTSGTDSTSDSSDPMQQLLKMFSEIMQSLFGDGQDGT; listed as Erwinia amylovora) | 9 | 16 | – | Efficacy of TMV control (TMV; listed as 20): 64% and 58% |
| B1 | 21 | – | 21 | PGE ht>buffer @ 40 μg/ml [2]: 23% @ 40 μg/ml; Efficacy of TMV control (TMV; listed as 6): 70% and 72% |
| B2 | 20 | – | 18 | HR elicitation in tobacco (in words) [1]: lost its HR activity; Efficacy of TMV control (TMV; listed as 14): 83% and 87% |
| B3 | 14 | – | 13 | PGE ht>buffer @ 40 μg/ml [2]: 16% @ 40 μg/ml; HR elicitation in tobacco (in words) [1]: did not elicit HR at a detectable level; Efficacy of TMV control (TMV; listed as 5): 77% and 78% |
| B4 | 7 | – | 7 | – |
| B5 | 19 | 5 to 10 | 14 | Efficacy of TMV control (TMV; listed as 15): 57% and 67% |
| B6 | 13 | 3.5 | 11 | Efficacy of TMV control (TMV; listed as 19): 89% and 77% |
| B7 | 11 | 5 to 7 | 12 | Efficacy of TMV control (TMV; listed as 1 (+control)): 84% and 72% |
| B8 | 16 | – | 19 | HR elicitation in tobacco (in words) [1]: lost its HR activity; Efficacy of TMV control (TMV): 89% |
| B9 | 8 | 3 | 4 | Efficacy of TMV control (TMV): 82% |
| B10 | 4 | 5 | 7 | PGE ht>buffer @ μg/ml ([2]; concentration figure missing in the cell): 18% @ μg/ml; enhanced growth at 60 μg/ml ([2]; tomato, 60 μg/ml): 18%; Efficacy of TMV control (TMV; listed as 13): 44% and 84% |
| B11 | 5 | 1 | 13 | Efficacy of TMV control (TMV): 69% |
| B12 | 12 | – | 9 | HR elicitation in tobacco (in words) [1]: did not elicit HR; Efficacy of TMV control (TMV; listed as 4): 64% and 79% |
